T1: human recombinant C-reactive protein (human), P02741
T1 chain: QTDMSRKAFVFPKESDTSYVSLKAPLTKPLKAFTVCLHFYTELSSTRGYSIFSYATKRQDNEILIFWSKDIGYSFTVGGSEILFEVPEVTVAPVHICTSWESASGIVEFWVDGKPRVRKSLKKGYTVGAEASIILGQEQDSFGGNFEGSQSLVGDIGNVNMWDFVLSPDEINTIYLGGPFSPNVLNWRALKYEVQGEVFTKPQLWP

B1: human recombinant C-reactive protein, P02741 19-224 (natural protein)
chain: T1 chain
B2: phosphorylase B (enzyme, UniProt P00489 1-843, looked up)
chain: MSRPLSDQEKRKQISVRGLAGVENVTELKKNFNRHLHFTLVKDRNVATPRDYYFALAHTVRDHLVGRWIRTQQHYYEKDPKRIYYLSLEFYMGRTLQNTMVNLALENACDEATYQLGLDMEELEEIEEDAGLGNGGLGRLAACFLDSMATLGLAAYGYGIRYEFGIFNQKICGGWQMEEADDWLRYGNPWEKARPEFTLPVHFYGRVEHTSQGAKWVDTQVVLAMPYDTPVPGYRNNVVNTMRLWSAKAPNDFNLKDFNVGGYIQAVLDRNLAENISRVLYPNDNFFEGKELRLKQEYFVVAATLQDIIRRFKSSKFGCRDPVRTNFDAFPDKVAIQLNDTHPSLAIPELMRVLVDLERLDWDKAWEVTVKTCAYTNHTVLPEALERWPVHLLETLLPRHLQIIYEINQRFLNRVAAAFPGDVDRLRRMSLVEEGAVKRINMAHLCIAGSHAVNGVARIHSEILKKTIFKDFYELEPHKFQNKTNGITPRRWLVLCNPGLAEIIAERIGEEYISDLDQLRKLLSYVDDEAFIRDVAKVKQENKLKFAAYLEREYKVHINPNSLFDVQVKRIHEYKRQLLNCLHVITLYNRIKKEPNKFVVPRTVMIGGKAAPGYHMAKMIIKLITAIGDVVNHDPVVGDRLRVIFLENYRVSLAEKVIPAADLSEQISTAGTEASGTGNMKFMLNGALTIGTMDGANVEMAEEAGEENFFIFGMRVEDVDRLDQRGYNAQEYYDRIPELRQIIEQLSSGFFSPKQPDLFKDIVNMLMHHDRFKVFADYEEYVKCQERVSALYKNPREWTRMVIRNIATSGKFSSDRTIAQYAREIWGVEPSRQRLPAPDEKIP
notes: phosphorylase B, dimer, 197 kDa; This catalogue product is recalled to be from rabbit muscle (surmise); also called PhosB; source: bought: Millipore Sigma (P/N P6635)
B3: Tryptophan RNA-binding attenuation protein (TRAP) from Bacillus stearothermophilus (natural protein, UniProt Q9X6J6 1-74, looked up)
chain: MYTNSDFVVIKALEDGVNVIGLTRGADTRFHHSEKLDKGEVLIAQFTEHTSAIKVRGKAYIQTRHGVIESEGKK
notes: also called TRAP bst; source: Mark Foster's lab; copies: 11

Columns and labels:
Assay in all cases: native MS; nanoESI on a Waters SELECT Series Cyclic IMS (Q-IM-TOF), gentle tuning at low cone voltage; quadrupole-selected charge-reduced precursor, surface-induced dissociation and ion mobility; 160/40 ammonium acetate/triethylammonium acetate; CRP 1 uM, SA 2-3 uM, PhosB 4 uM; TRAP ~1.5 uM complex in 600 mM ammonium acetate with TEAA added for 15+
streptavidin = streptavidin (UniProt P22629)
[1] = molecular target: T1, human recombinant C-reactive protein …; settings: remark: other sources report otherwise
[2] = molecular target: the molecule itself

| Molecule | stoichiometry N [2] | also measured |
| --- | --- | --- |
| streptavidin (from UniProt P22629 25-183) (natural protein) | – | stoichiometry N (streptavidin): 4 |
| B1 | – | stoichiometry N [1]: 5 |
| B2 | 2 | – |
| B3 | 11 | – |

Source: article PMC12318544, “Roughhousing with Ions: Surface-Induced Dissociation and Electron Capture Dissociation as Diagnostics of Q-Cyclic IMS-TOF Instrument Tuning Gentleness” (Journal of the American Society for Mass Spectrometry, 2024)
